Results published in US20130143798A1 (Novo Nordisk, published 2013).
Numbered stars: 1 amine (or outer) side, 2 acyl side, 3 side chain; on linkers, the order of the positions; unused ones are H or OH. Square brackets hold non-standard residues; d marks the D form. Side chains are listed from the residue outwards. Ends that are not written are not given here. * marks the point of attachment. C18 diacid = O=C(O)CCCCCCCCCCCCCCCCC(=O)*; pY = N[C@@H](Cc1ccc(OP(=O)(O)O)cc1)C(=O)O; γGlu = O=C(O)[C@H](CCC(=O)[*:2])N[*:1]; AEEA = NCCOCCOCC(=O)O

These binders were tested against T1, glucagon receptor (UniProt P47871 26-477, limits assumed) (assay: cell-based or functional assay).
T1 sequence (P47871 26-477 limits assumed): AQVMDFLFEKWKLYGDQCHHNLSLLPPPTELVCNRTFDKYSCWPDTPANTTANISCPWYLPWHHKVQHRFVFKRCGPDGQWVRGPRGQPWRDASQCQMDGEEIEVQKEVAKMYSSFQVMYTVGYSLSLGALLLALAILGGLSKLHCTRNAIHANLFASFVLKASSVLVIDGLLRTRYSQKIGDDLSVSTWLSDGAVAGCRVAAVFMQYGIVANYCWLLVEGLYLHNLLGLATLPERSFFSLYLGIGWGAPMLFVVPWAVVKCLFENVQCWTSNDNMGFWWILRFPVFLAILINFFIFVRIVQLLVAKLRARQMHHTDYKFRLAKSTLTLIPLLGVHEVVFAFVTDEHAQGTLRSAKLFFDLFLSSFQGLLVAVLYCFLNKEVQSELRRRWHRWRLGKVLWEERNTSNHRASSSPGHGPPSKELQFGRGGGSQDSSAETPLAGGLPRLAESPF

Binder	Assay (I) Glucagon [EC50] [nM]
HSQGTFTSDYSKYLDSRRAQDFVK([AEEA-AEEA-γGlu-C18 diacid])HLLNT	0.194
HSQGTFTSDYSKYLDSRRAQEFVK([AEEA-AEEA-γGlu-C18 diacid])RLLNT	0.074
HSQGTFTSDYSKYLDSKRAQEFVK([AEEA-AEEA-γGlu-C18 diacid])WLLNT	0.022
HSQGTFTSDYSKYLDSKRAQEFVQWLLNTK([AEEA-AEEA-γGlu-C18 diacid])-NH2 (N-terminus assumed; SMILES CC(C)C[C@H](NC(=O)[C@H](Cc1ccc(O)cc1)NC(=O)[C@H](CCCCN)NC(=O)[C@H](CO)NC(=O)[C@H](Cc1ccc(O)cc1)NC(=O)[C@H](CC(=O)O)NC(=O)[C@H](CO)NC(=O)[C@@H](NC(=O)[C@H](Cc1ccccc1)NC(=O)[C@@H](NC(=O)CNC(=O)[C@H](CCC(N)=O)NC(=O)[C@H](CO)NC(=O)[C@@H](N)Cc1c[nH]cn1)[C@@H](C)O)[C@@H](C)O)C(=O)N[C@@H](CC(=O)O)C(=O)N[C@@H](CO)C(=O)N[C@@H](CCCCN)C(=O)N[C@@H](CCCNC(=N)N)C(=O)N[C@@H](C)C(=O)N[C@@H](CCC(N)=O)C(=O)N[C@@H](CCC(=O)O)C(=O)N[C@@H](Cc1ccccc1)C(=O)N[C@H](C(=O)N[C@@H](CCC(N)=O)C(=O)N[C@@H](Cc1c[nH]c2ccccc12)C(=O)N[C@@H](CC(C)C)C(=O)N[C@@H](CC(C)C)C(=O)N[C@@H](CC(N)=O)C(=O)N[C@H](C(=O)N[C@@H](CCCCNC(=O)COCCOCCNC(=O)COCCOCCNC(=O)CC[C@H](NC(=O)CCCCCCCCCCCCCCCCC(=O)O)C(=O)O)C(N)=O)[C@@H](C)O)C(C)C) [N^α- ([Lys^17, Glu^21, Leu^27]Glucagonyl) …]	0.017
HSQGTFTSDYSKYLDSRRAQDFVQWLLK([AEEA-AEEA-γGlu-C18 diacid])T	0.022
HSQGTFTSDYSKYLDK([AEEA-AEEA-γGlu-C18 diacid])KKAQEFVQWLLNT	0.02
HSQGTFTSDYSKYLDSKRAQEFVQWLLK([AEEA-AEEA-γGlu-C18 diacid])T-NH2 (N-terminus assumed; SMILES CC(C)C[C@H](NC(=O)[C@H](Cc1ccc(O)cc1)NC(=O)[C@H](CCCCN)NC(=O)[C@H](CO)NC(=O)[C@H](Cc1ccc(O)cc1)NC(=O)[C@H](CC(=O)O)NC(=O)[C@H](CO)NC(=O)[C@@H](NC(=O)[C@H](Cc1ccccc1)NC(=O)[C@@H](NC(=O)CNC(=O)[C@H](CCC(N)=O)NC(=O)[C@H](CO)NC(=O)[C@@H](N)Cc1c[nH]cn1)[C@@H](C)O)[C@@H](C)O)C(=O)N[C@@H](CC(=O)O)C(=O)N[C@@H](CO)C(=O)N[C@@H](CCCCN)C(=O)N[C@@H](CCCNC(=N)N)C(=O)N[C@@H](C)C(=O)N[C@@H](CCC(N)=O)C(=O)N[C@@H](CCC(=O)O)C(=O)N[C@@H](Cc1ccccc1)C(=O)N[C@H](C(=O)N[C@@H](CCC(N)=O)C(=O)N[C@@H](Cc1c[nH]c2ccccc12)C(=O)N[C@@H](CC(C)C)C(=O)N[C@@H](CC(C)C)C(=O)N[C@@H](CCCCNC(=O)COCCOCCNC(=O)COCCOCCNC(=O)CC[C@H](NC(=O)CCCCCCCCCCCCCCCCC(=O)O)C(=O)O)C(=O)N[C@H](C(N)=O)[C@@H](C)O)C(C)C)	0.003
HSQGTFTSDYSKYLDK([AEEA-AEEA-γGlu-C18 diacid])KRAQEFVQWLLNT	0.02
HSQGTFTSDYSKYLDSKRAQEFVQWLK([AEEA-AEEA-γGlu-C18 diacid])NT-NH2 (N-terminus assumed; SMILES CC(C)C[C@H](NC(=O)[C@H](Cc1ccc(O)cc1)NC(=O)[C@H](CCCCN)NC(=O)[C@H](CO)NC(=O)[C@H](Cc1ccc(O)cc1)NC(=O)[C@H](CC(=O)O)NC(=O)[C@H](CO)NC(=O)[C@@H](NC(=O)[C@H](Cc1ccccc1)NC(=O)[C@@H](NC(=O)CNC(=O)[C@H](CCC(N)=O)NC(=O)[C@H](CO)NC(=O)[C@@H](N)Cc1c[nH]cn1)[C@@H](C)O)[C@@H](C)O)C(=O)N[C@@H](CC(=O)O)C(=O)N[C@@H](CO)C(=O)N[C@@H](CCCCN)C(=O)N[C@@H](CCCNC(=N)N)C(=O)N[C@@H](C)C(=O)N[C@@H](CCC(N)=O)C(=O)N[C@@H](CCC(=O)O)C(=O)N[C@@H](Cc1ccccc1)C(=O)N[C@H](C(=O)N[C@@H](CCC(N)=O)C(=O)N[C@@H](Cc1c[nH]c2ccccc12)C(=O)N[C@@H](CC(C)C)C(=O)N[C@@H](CCCCNC(=O)COCCOCCNC(=O)COCCOCCNC(=O)CC[C@H](NC(=O)CCCCCCCCCCCCCCCCC(=O)O)C(=O)O)C(=O)N[C@@H](CC(N)=O)C(=O)N[C@H](C(N)=O)[C@@H](C)O)C(C)C)	0.007
HSQGTFTSDYSKYLDSKRAQEFVQK([AEEA-AEEA-γGlu-C18 diacid])LLNT-NH2 (N-terminus assumed; SMILES CC(C)C[C@H](NC(=O)[C@H](Cc1ccc(O)cc1)NC(=O)[C@H](CCCCN)NC(=O)[C@H](CO)NC(=O)[C@H](Cc1ccc(O)cc1)NC(=O)[C@H](CC(=O)O)NC(=O)[C@H](CO)NC(=O)[C@@H](NC(=O)[C@H](Cc1ccccc1)NC(=O)[C@@H](NC(=O)CNC(=O)[C@H](CCC(N)=O)NC(=O)[C@H](CO)NC(=O)[C@@H](N)Cc1c[nH]cn1)[C@@H](C)O)[C@@H](C)O)C(=O)N[C@@H](CC(=O)O)C(=O)N[C@@H](CO)C(=O)N[C@@H](CCCCN)C(=O)N[C@@H](CCCNC(=N)N)C(=O)N[C@@H](C)C(=O)N[C@@H](CCC(N)=O)C(=O)N[C@@H](CCC(=O)O)C(=O)N[C@@H](Cc1ccccc1)C(=O)N[C@H](C(=O)N[C@@H](CCC(N)=O)C(=O)N[C@@H](CCCCNC(=O)COCCOCCNC(=O)COCCOCCNC(=O)CC[C@H](NC(=O)CCCCCCCCCCCCCCCCC(=O)O)C(=O)O)C(=O)N[C@@H](CC(C)C)C(=O)N[C@@H](CC(C)C)C(=O)N[C@@H](CC(N)=O)C(=O)N[C@H](C(N)=O)[C@@H](C)O)C(C)C) [N^ε25 …]	0.012
HSQGTFTSDYSKYLDSKKAQEFVK([AEEA-AEEA-γGlu-C18 diacid])WLLST	0.009
HSQGTFTSDYSKYLDSRRAQDFVQK([AEEA-AEEA-γGlu-C18 diacid])LLNT	0.155
HSQGTFTSDYSKYLDSRQAQEFVK([AEEA-AEEA-γGlu-C18 diacid])WLLNT	0.15
HSQGTFTSDYSKYLDSRRAQDFVK([AEEA-AEEA-γGlu-C18 diacid])[pY]LLNT	0.171
HSQGTFTSDYSKYLDSKRAQEFVQWLLNK([AEEA-AEEA-γGlu-C18 diacid])-NH2 (N-terminus assumed; SMILES CC(C)C[C@H](NC(=O)[C@H](CC(C)C)NC(=O)[C@H](Cc1c[nH]c2ccccc12)NC(=O)[C@H](CCC(N)=O)NC(=O)[C@@H](NC(=O)[C@H](Cc1ccccc1)NC(=O)[C@H](CCC(=O)O)NC(=O)[C@H](CCC(N)=O)NC(=O)[C@H](C)NC(=O)[C@H](CCCNC(=N)N)NC(=O)[C@H](CCCCN)NC(=O)[C@H](CO)NC(=O)[C@H](CC(=O)O)NC(=O)[C@H](CC(C)C)NC(=O)[C@H](Cc1ccc(O)cc1)NC(=O)[C@H](CCCCN)NC(=O)[C@H](CO)NC(=O)[C@H](Cc1ccc(O)cc1)NC(=O)[C@H](CC(=O)O)NC(=O)[C@H](CO)NC(=O)[C@@H](NC(=O)[C@H](Cc1ccccc1)NC(=O)[C@@H](NC(=O)CNC(=O)[C@H](CCC(N)=O)NC(=O)[C@H](CO)NC(=O)[C@@H](N)Cc1c[nH]cn1)[C@@H](C)O)[C@@H](C)O)C(C)C)C(=O)N[C@@H](CC(N)=O)C(=O)N[C@@H](CCCCNC(=O)COCCOCCNC(=O)COCCOCCNC(=O)CC[C@H](NC(=O)CCCCCCCCCCCCCCCCC(=O)O)C(=O)O)C(N)=O) [N^ε29 …]	0.003

Molecular target: T1, glucagon receptor
Experiment: cell-based or functional assay
Remark: another data set of the same source

Binder	Assay (I) Glucagon [EC50] [nM]
HSQGTFTSDYSKYLDSRRAQDFVQWLLK([AEEA-AEEA-γGlu-γGlu-γGlu-C18 diacid])T	0.116
HSQGTFTSDYSKYLDSRRAQDFVK([γGlu-AEEA-AEEA-γGlu-γGlu-C18 diacid])WLLST	0.106
HSQGTFTSDYSKYLDSRRAQDFVK([AEEA-AEEA-γGlu-γGlu-γGlu-C18 diacid])WLLST	0.115
HSQGTFTSDYSKYLDSRRAEDFVK([γGlu-γGlu-AEEA-AEEA-γGlu-C18 diacid])WLLST	0.307
HSQGTFTSDYSKYLDK([γGlu-γGlu-AEEA-AEEA-γGlu-C18 diacid])RRAQEFVQRLLNT	0.45
HSQGTFTSDYSKYLDSRRAQDFVHWLLNTK (C-terminal Lys (position 30): N-epsilon acylated with the substituent printed in the name)	0.1
HSQGTFTSDYSKYLDSRRAQDFVQWLLK([γGlu-AEEA-AEEA-γGlu-γGlu-C18 diacid])T	0.093
